T1: recombinant human IL-1α (human) (UniProt P01583)
T1 sequence: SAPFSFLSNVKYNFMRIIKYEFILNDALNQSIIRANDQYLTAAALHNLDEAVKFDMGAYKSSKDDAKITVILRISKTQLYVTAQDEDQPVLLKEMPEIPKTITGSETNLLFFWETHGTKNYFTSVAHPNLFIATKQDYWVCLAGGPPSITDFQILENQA


Assays:
[1] = molecular target: T1, recombinant human IL-1α (human); assay: cell-based or functional assay
[2] = molecular target: T1, recombinant human IL-1α (human); assay: SPR (Biacore), antibody captured, IL-1α in solution

| Binder | Neutralization Potency (IC50, pM), MRC-5 bioassay (IL-8 production) [1] | Kd [2] |
| --- | --- | --- |
| anti-human IL-1α monoclonal antibody 3D12 (antibody, from a related filing, V domains shown) VH: QIQLVQSGPELKKPGETVKISCKASGYTFRNYGMNWVKQAPGKDLKRMAWINTYTGESTYADDFKGRFAFSLETSASTAYLQINNLKNEDTATYFCARGIYYYGSSYAMDYWGQGTSVTVSS VL: IQMTQTTSSLSASLGDRVTISCRASQDISNCLNWYQQKPDGTVKLLIYYTSRLHSGVPSRFSGSGSGTDYSLTISNLEQEDIATYFCQQGKTLPYAFGGGTKLEINR | 1880 pM | 1.34 nM |
| humanized anti-human IL-1α antibody H3D12.8 (antibody, from a related filing, human IgG1, V domains shown) VH: EIQLVQSGSELKKPGASVKVSCKASGYTFTNYGMNWVRQAPGQDLERMAWINTYTGESTYADDFKGRFVFSLDTSVSTAYLQISSLKAEDTAVYFCARGIYYYGSSYAMDYWGQGTTVTVSS VL: DIQMTQSPSSLSASVGDRVTITCRASQDISNCLNWYQQKPGKTPKLLIYYTSRLHSGVPSRFSGSGSGTDYTFTISSLQPEDIATYFCQQGKTLPYAFGQGTKLEIK | 1950 pM | 1.35 nM |
| humanized anti-human IL-1α antibody H3D12.16 (antibody, from a related filing, human IgG1, V domains shown) VH: EIQLVQSGAEVKKPGASVKVSCKASGYTFTNYGMNWVRQAPGQDLERMAWINTYTGESTYADDFKGRFTFTLDTSTSTAYMELSSLRSEDTAVYFCARGIYYYGSSYAMDYWGQGTTVTVSS VL: DIQMTQSPSSLSASVGDRVTITCRASQDISNCLNWYQQKPGKTPKLLIYYTSRLHSGVPSRFSGSGSGTDYTFTISSLQPEDIATYFCQQGKTLPYAFGQGTKLEIK | 1360 pM | 2.09 nM |
| humanized anti-human IL-1α antibody H3D12.r10 (antibody, from a related filing, human IgG1, V domains shown) VH: EIQLVQSGAEVKKPGASVKVSCKASGYTFAHYGMNWVRQAPGQGLEWMGWINTYTGQSTYADDFKGRFTFTLDTSTSTAYMELSSLRSEDTAVYYCARGIYYFGSNYAMDYWGQGTTVTVSS VL: DIQMTQSPSSLSASVGDRVTITCRASQDISNMLNWYQQKPGKTPKLLIYYTSRLRSGVPSRFSGSGSGTDYTFTISSLQPEDIATYFCQQGKKPPYTFGQGTKLEIK | 0.6 pM | 0.032 nM |
| humanized anti-human IL-1α antibody H3D12.r16 (antibody, from a related filing, human IgG1, V domains shown) VH: EVQLVQSGAEVKKPGASVKVSCKASGYTFKYYGMNWVRQAPGQGLERMGWINTYTGQSTYADDFKGRVTFTLDTSTSTAYMELSSLRSEDTAVYYCARDIYYYGSDFAMDYWGQGTTVTVSS VL: DIQMTQSPSSLSASVGDRVTITCRASQDISNMLNWYQQKPGKAPKLLIYYTSRLKPGVPSRFSGSGSGTDYTFTISSLQPEDIATYFCQQGKTAPYTFGQGTKLEIK | 0.6 pM | 0.031 nM |
| humanized anti-human IL-1α antibody H3D12.r37 (antibody, from a related filing, human IgG1, V domains shown) VH: EIQLVQSGAEVKKPGASVKVSCKASGYTFKYYGMNWVRQAPGQGLERMGWINTYTGESRYADDFKGRVTFTLDTSTSTAYMELSSLRSEDTAVYYCARDIYYFGSDYAMDYWGQGTTVTVSS VL: DIQMTQSPSSLSASVGDRVTITCRASQDISNRLNWYQQKPGKAPKLLIYYASRLKPGVPSRFSGSGSGTDYTFTISSLQPEDIATYFCQQGNTPPYTFGQGTKLEIK | 1.4 pM | 0.028 nM |
